Tests used:
[1] = target: TCR/CD3 complex (human (endogenous in Jurkat)) (UniProt P07766); assay: recruitment to antibody-coated beads (confocal microscopy); CD6-GFP Jurkat T cells on fibronectin-coated coverslips with 4.5 um anti-CD3-coated (Dynal CD3) or fibronectin-coated beads; live cells at RT; CD6-GFP intensity at bead contact against the opposite side of the cell
[2] = target: TCR/CD3 complex (human (endogenous in Jurkat)) (UniProt P07766); assay: FRAP on micropatterned antibody spots; CD6-GFP Jurkat T cells on spots of 100, 10 or 1% anti-CD3 surrounded by fibronectin; 37 C; circular ROI of 2.1 um on spots and on surrounding fibronectin; single exponential fit

Chain of UniProt P07766 (P07766 whole entry, looked up, one chain of several): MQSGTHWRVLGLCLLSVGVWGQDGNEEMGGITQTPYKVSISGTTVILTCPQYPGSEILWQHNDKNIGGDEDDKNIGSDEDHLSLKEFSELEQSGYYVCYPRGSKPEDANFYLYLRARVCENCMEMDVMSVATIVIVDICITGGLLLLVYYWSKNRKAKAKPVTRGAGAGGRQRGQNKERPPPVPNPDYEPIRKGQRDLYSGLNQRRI

B1: CD6-GFP (receptor)
chain: HPSPAPPDQLNTSSAESELWEPGERLPVRLTNGSSSCSGTVEVRLEASWEPACGALWDSRAAEAVCRALGCGGAEAASQLAPPTPELPPPPAAGNTSVAANATLAGAPALLCSGAEWRLCEVVEHACRSDGRRARVTCAENRALRLVDGGGACAGRVEMLEHGEWGSVCDDTWDLEDAHVVCRQLGCGWAVQALPGLHFTPGRGPIHRDQVNCSGAEAYLWDCPGLPGQHYCGHKEDAGAVCSEHQSWRLTGGADRCEGQVEVHFRGVWNTVCDSEWYPSEAKVLCQSLGCGTAVERPKGLPHSLSGRMYYSCNGEELTLSNCSWRFNNSNLCSQSLAARVLCSASRSLHNLSTPEVPASVQTVTIESSVTVKIENKESRELMLLIPSIVLGILLLGSLIFIAFILLRIKGKYALPVMVNHQHLPTTIPAGSNSYQPVPITIPKEVFMLPIQVQAPPPEDSDSGSDSDYEHYDFSAQPPVALTTFYNSQRHRVTDEEVQQSRFQMPPLEEGLEELHASHIPTANPGHCITDPPSLGPQYHPRSNSESSTSSGEDYCNSPKSKLPPWNPQVFSSERSSFLEQPPNLELAGTQPAFSAGPPADDSSSTSSGEWYQNFQPPPQPPSEEQFGCPGSPSPQPDSTDNDDYDDISAA
fold enrichment at αCD3-coated beads against fibronectin-coated beads [1]: 3 fold
fraction of CD6-GFP immobilized on 10 and 100% αCD3 spots [2]: 30%

Source: paper PMC6189472
